From patent publication US5929223 come the findings set out here.

This data set has as its target T1, dCREB2-a (Drosophila melanogaster) (UniProt Q9VWW0).
T1 sequence: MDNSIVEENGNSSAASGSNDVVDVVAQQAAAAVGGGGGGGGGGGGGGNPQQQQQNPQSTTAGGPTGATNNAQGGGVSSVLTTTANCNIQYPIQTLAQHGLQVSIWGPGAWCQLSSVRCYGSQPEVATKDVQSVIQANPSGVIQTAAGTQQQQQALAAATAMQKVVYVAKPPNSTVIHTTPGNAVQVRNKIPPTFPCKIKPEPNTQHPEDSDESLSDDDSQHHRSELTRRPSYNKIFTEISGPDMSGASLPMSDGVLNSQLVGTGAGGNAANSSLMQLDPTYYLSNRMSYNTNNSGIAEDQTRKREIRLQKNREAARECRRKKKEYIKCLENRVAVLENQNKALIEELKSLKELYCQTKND
In words: cell_activity. The following applies: F9 cells, with PKA, relative to PKA alone.

In turn, “D(-71) CAT somatostatin promoter CRE fragment” had an activity of 5.4 fold.
